34 molecules from US20260092093A1 (TJ BIOPHARMA SHANGHAI, published 2026) can be followed below.

To fix the notation:
T1: hIL-18Rα ECD-Fc fusion protein (human, UniProt Q13478 22-329)
T1 construct: extracellular domain; captured on Protein A sensor
T1 sequence (looked up): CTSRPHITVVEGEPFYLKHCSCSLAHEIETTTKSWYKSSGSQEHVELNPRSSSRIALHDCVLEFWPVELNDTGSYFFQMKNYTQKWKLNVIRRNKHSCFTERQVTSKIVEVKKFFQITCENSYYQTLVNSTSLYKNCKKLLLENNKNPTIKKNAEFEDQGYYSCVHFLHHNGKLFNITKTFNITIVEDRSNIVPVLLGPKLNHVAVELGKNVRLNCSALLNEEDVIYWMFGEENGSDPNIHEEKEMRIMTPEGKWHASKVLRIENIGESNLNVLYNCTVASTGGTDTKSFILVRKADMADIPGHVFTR

T2: recombinant hIL-18Rα extracellular domain (human, UniProt Q13478 22-329, biotin label (selection) or fluorescent probe (single-clone FACS), sites not given)
T2 construct: extracellular domain; also called hIL-18Rα ECD; hIL-18Rα-ECD
T2 sequence (looked up): T1 sequence (looked up)

B1: IL-18 variant polypeptide LM1 (ligand)
chain: YFPKLKSKLSVIRNLNDQVLFIDQGNRPLFEDMTDSDCRDNAPRTIFIISMYKGSGARGMAVTISVKCEKISTLSCENKIISFKEMNPPDNIKDTKSDIIFFQRSVPGHDNKMQFESSSYEGYFLACEKERDLFKLILKKEDELGDRSIMFTVQNED
notes: soluble, E. coli-made
B2: IL-18 variant polypeptide LM4 (ligand)
chain: B1 chain with G54H, G56Y, A57S
notes: soluble, E. coli-made
B3: IL-18 variant polypeptide LM3 (ligand)
chain: B1 chain with K6R, V11I, N91G
notes: soluble, E. coli-made
B4: IL-18 variant polypeptide LM5 (ligand)
chain: B1 chain with P3G, K6R, G54W, G56S, A57Q
notes: soluble, E. coli-made
B5: IL-18 variant polypeptide WM8 (ligand)
chain: B1 chain with K6R, G54D, G56Q, A57P, N91S
notes: soluble, E. coli-made
B6: IL-18 variant polypeptide LM2 (ligand)
chain: B1 chain with K6R, G54L, A57S, N91V
notes: soluble, E. coli-made
B7: IL-18 variant polypeptide MM5 (ligand)
chain: B1 chain with P3G, K6G, G54L, G56T, A57E, N91G, R104S
notes: soluble, E. coli-made
B8: IL-18 variant polypeptide MM4 (ligand)
chain: B1 chain with K6R, G54L, G56T, A57I, N91G
notes: soluble, E. coli-made
B9: IL-18 variant polypeptide WM2 (ligand)
chain: B1 chain with K6R, G54D, G56Q, A57P, K96E
notes: soluble, E. coli-made
B10: IL-18 variant polypeptide WM6 (ligand)
chain: B1 chain with P3D, G54D, G56Q, A57P, N91S
notes: soluble, E. coli-made
B11: IL-18 variant polypeptide WM10 (ligand)
chain: B1 chain with G54D, G56Q, A57P, N91S
notes: soluble, E. coli-made
B12: SEQ ID NO 5 (ligand)
chain: B1 chain with K6R, G54H, G56T, A57V, N91V
B13: SEQ ID NO 7 (ligand)
chain: B1 chain with G54H, G56T, A57V, N91V
B14: SEQ ID NO 6 (ligand)
chain: B1 chain with K6S, G54W, G56P, A57W, N91D
B15: SEQ ID NO 23 (ligand)
chain: B1 chain with A57T, N91A
B16: SEQ ID NO 24 (ligand)
chain: B1 chain with P3D, K6G, G54W, G56P, A57W
B17: SEQ ID NO 25 (ligand)
chain: B1 chain with G54L, A57V, N91T
B18: IL-18 variant polypeptide MM1 (ligand)
chain: B1 chain with G54L, G56T, A57Q, N91V
B19: SEQ ID NO 20 (ligand)
chain: B1 chain with G54F, G56T, A57V, N91G, R104H
B20: SEQ ID NO 29 (ligand)
chain: B1 chain with K6T, G54H, G56Y, N91V
B21: SEQ ID NO 15 (ligand)
chain: B1 chain with K6R, G54S, G56R, A57G, N91V, R104T
B22: SEQ ID NO 13 (ligand)
chain: B1 chain with K6R, G54W, G56K, A57T, N91V, R104Y
B23: SEQ ID NO 30 (ligand)
chain: B1 chain with G54H, G56I, A57H, N91V, R104V
B24: IL-18 variant polypeptide M8 (ligand)
chain: B1 chain with K6R, G54W, G56P, N91A, R104L
B25: SEQ ID NO 18 (ligand)
chain: B1 chain with F2L, K6R, G54W, G56T, A57S, N91S, R104S, N155K
B26: SEQ ID NO 16 (ligand)
chain: B1 chain with K6T, G54H, G56T, A57Y, N91A, N155K
B27: SEQ ID NO 19 (ligand)
chain: B1 chain with K6R, G54W, G56Y, A57P, N91S, R104S
B28: IL-18 variant polypeptide M36 (ligand)
chain: B1 chain with K6S, G54A, G56D, A57Q, N91G
B29: SEQ ID NO 31 (ligand)
chain: B1 chain with G54W, G56A, A57R, N91P, R104S
B30: SEQ ID NO 14 (ligand)
chain: B1 chain with K6R, G54Y, G56T, N91V, R104H
B31: SEQ ID NO 33 (ligand)
chain: B1 chain with P3G, G54L, G56T, A57R, N91P
B32: IL-18 variant polypeptide M6 (ligand)
chain: B1 chain with K6R, G54W, G56T, A57P, N91V, R104T
B33: SEQ ID NO 32 (ligand)
chain: B1 chain with K6R, G54H, G56S, A57R, N91I, R104Y
B34: SEQ ID NO 10 (ligand)
chain: B1 chain with P3T, G54W, G56S, A57D, N91A, R104V

Changes are numbered by the printed parent chain.

One assay concerns the target T1, hIL-18Rα ECD-Fc fusion protein. As to the kind of experiment: BLI (Octet RED96), hIL-18Rα ECD-Fc on Protein A sensor. On the procedure: The affinities of IL-18 variant polypeptides for hIL-18Rα were assessed by Biolayer Interferometry (BLI) on Octet RED96 using Protein A sensor coated with hIL-18Rα ECD-Fc fusion protein, and WT hIL-18 was used as a control.
For orientation: BLI is a label-free optical method that tracks binding on a fibre tip over time.
As usually defined, the Kd is the equilibrium constant for the complex coming apart. As a reminder, the koff is a measure of how fast the partners let go of each other. One may read the kon as the rate constant with which the complex forms. Consider B1, for which the Kd worked out at 86.2 nM, the “Response (nm)” value was determined as 0.0618 nm, the koff came out at 0.047 s⁻¹ and the kon was found to be 545000 M⁻¹ s⁻¹.
For B2, binding was characterised by a dissociation constant (Kd) of 4.17 nM, the “Response (nm)” value worked out at 0.0262 nm, the koff stood at 0.0169 s⁻¹ and the kon worked out at 4.06e+06 M⁻¹ s⁻¹.
Turning to B3, the Kd is 14.6 nM, the “Response (nm)” value was found to be 0.0422 nm, the koff turned out to be 0.0328 s⁻¹ and the kon worked out at 2.24e+06 M⁻¹ s⁻¹.
Consider B4, for which the Kd came out at 19.6 nM, the “Response (nm)” value turned out to be 0.038 nm, the koff was found to be 0.0411 s⁻¹ and the kon was determined as 2.1e+06 M⁻¹ s⁻¹.
For B5, the “Response (nm)” value is less than 0.02 nm.
For B6, the dissociation constant (Kd) stood at 37.9 nM, the “Response (nm)” value is 0.0338 nm, the koff turned out to be 0.052 s⁻¹ and the kon is 1.37e+06 M⁻¹ s⁻¹.
The matching figures for B7: 104 nM, 0.0326 nm, 0.077 s⁻¹ and 743000 M⁻¹ s⁻¹.
Take B8: the Kd was determined as 9.82 nM, the “Response (nm)” value came out at 0.0238 nm, the koff was found to be 0.0375 s⁻¹ and the kon was found to be 3.82e+06 M⁻¹ s⁻¹.
Regarding B9, the “Response (nm)” value is less than 0.02 nm.
Turning to B10, the Kd amounted to 10.1 nM, the “Response (nm)” value amounted to 0.304 nm, the koff was 0.00199 s⁻¹ and the kon came to 196000 M⁻¹ s⁻¹.
For B11, the Kd is 12.9 nM, the “Response (nm)” value is less than 0.02 nm, the koff turned out to be 0.007 s⁻¹ and the kon was found to be 543000 M⁻¹ s⁻¹.

The next assay has as its target T2, recombinant hIL-18Rα extracellular …. As to the kind of experiment: single-clone FACS, yeast display, 10 nM labelled hIL-18Rα ECD. As to the method: Following the screens described in Example 2, single clone FACS analysis was performed to verify the binding of selected yeast cell surface-expressed IL-18 variant polypeptides from Round 4 and Round 5 to 10 nM hIL-18Rα-ECD. Briefly, each yeast clone at the same density was incubated with 10 nM IL-18Rα-ECD labeled by fluorescent probe, respectively, followed by washing step. Then the ratio of fluorescent positive IL-18Rα ECD binding yeasts in the population of each clone were analyzed.
Regarding B12, the “% of fluorescence positive cells” value was 95.6%.
For B13, the “% of fluorescence positive cells” value stood at 95.5%.
Consider B14, for which the “% of fluorescence positive cells” value stood at 95.5%.
As for B15, the “% of fluorescence positive cells” value stood at 90.8%.
On the same count and under the same terms, the same measure for B16: 90.1%; for B17: 90%; for B18: 91.6%.
For B19, the “% of fluorescence positive cells” value was found to be 91.7%.
Same read-out and setting: for B20 the value was 89.7%; for B21, 93%; for B22, 93.2%.
On the same count and under the same terms, the same measure for B23: 89.7%.
The same measure, in the same setting: for B24 the value was 73.4%; for B25, 92%.
For the molecule B26, the “% of fluorescence positive cells” value was determined as 93%.
For the molecule B27, the “% of fluorescence positive cells” value stood at 97.9%.
On the same count and under the same terms, for B28 the value was 14.8%; for B29, 89.5%; for B30, 93.2%.
With B31, the “% of fluorescence positive cells” value was 88.8%.
For B32, the “% of fluorescence positive cells” value was found to be 79%.
Same read-out and setting: the same measure for B33: 88.9%.
B34: the “% of fluorescence positive cells” value is 94.8%.
